In US20050080013A1 (Pfizer, published 2005):
Non-standard residues stand in square brackets, D forms with d. No end group written: not given here. Aib = CC(C)(N)C(=O)O

T1: lecithin:cholesterol acyltransferase (LCAT), purified from human plasma (human, UniProt P04180 25-440)
T1 sequence (looked up): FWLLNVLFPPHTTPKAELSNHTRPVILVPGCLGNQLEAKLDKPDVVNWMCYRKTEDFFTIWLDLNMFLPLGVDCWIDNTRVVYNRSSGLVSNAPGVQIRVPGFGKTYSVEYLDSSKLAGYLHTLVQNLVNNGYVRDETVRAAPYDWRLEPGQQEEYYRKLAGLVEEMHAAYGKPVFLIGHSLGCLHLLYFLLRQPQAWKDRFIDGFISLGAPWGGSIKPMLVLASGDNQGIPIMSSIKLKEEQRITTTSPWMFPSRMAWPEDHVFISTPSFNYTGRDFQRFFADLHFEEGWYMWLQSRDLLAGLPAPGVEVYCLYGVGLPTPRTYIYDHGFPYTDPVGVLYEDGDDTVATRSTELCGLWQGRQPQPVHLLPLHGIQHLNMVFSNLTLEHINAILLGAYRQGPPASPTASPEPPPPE


What follows are binders tested against T1, lecithin:cholesterol acyltransferase … (assay: cell-based or functional assay).

Binder	ACTIVITY (%) LCAT
PVLELFERLLDELLNALQKKLK [peptide 86]	7%
PVLDLFRELLNELLE [peptide 97]	4%
PVLDLFRELLNW[Aib]LEALKQKLK [peptide 101]	2%
PVLDEFRELYNE[Aib]LEALKQKLK [peptide 92]	5%
KLKQKLAELLENLLERFLDLVP [peptide 99]	2%
PVLDLFRELGNELLEALKQKLK [peptide 9]	83%
[dP][dV][dL][dD][dL][dF][dR][dE][dL][dL][dN][dE][dL][dL][dE][dA][dL][dK][dQ][dK][dL][dK] [peptide 100]	2%
PVLDEFREKLNELLEALKQKLK [peptide 84]	7%
PVLDLFRELLNL[Aib]LEALKQKLK [peptide 95]	5%
PLDLFRELLNELLEALKQKLK [peptide 85]	7%
PVLDEFREKLNE[Aib]LKALKQKLK [peptide 93]	5%
PVLDEFREKLNEALEALKQKLK [peptide 94]	5%
[dP][dL][dL][dE][dL][dL][dK][dE][dL][dL][dQ][dE][dL][dL][dE][dA][dL][dK][dQ][dK][dL][dK] [peptide 87]	7%
[dP][dV][dL][dD][dL][dF][dR][dE][dL][dL][dN][dE][Aib][dL][dE][dA][dL][dK][dQ][dK][dL][dK] [peptide 96]	5%
PVLDLFRELLNEGLEALKQKLK [peptide 8]	83%
PVLDEFRELLNE[Aib]LEALKQKLK [peptide 91]	6%
PVLDEFREKLNE[Aib]LWALKQKLK [peptide 89]	6%
PVLDLFRELLNEELEALKQKLK [peptide 98]	2%
PVLDLFERLLNELLEALQKKLK [peptide 80]	9%
LDEFREKLNE[Aib]LEALKQKLK [peptide 82]	8%
PVLDLFRELLNL[Aib]LEALKEKLK [peptide 102]	2%
PVLDKFRELLNE[Aib]LEALKQKLK [peptide 88]	7%
PVLDEFREKLNK[Aib]LEALKQKLK [peptide 77]	9%
DEFREKLNE[Aib]LEALKQKLK [peptide 90]	6%
PVLDEFRELLNELLEALKQKLK [peptide 79]	9%
